# Where two headings read alike, the source gives them in different places.
# T1: GDF11 (UniProt O95390 299-407)
# T1 construct: also called Growth and Differentiation Factor-11; BMP11
# T1 sequence (looked up): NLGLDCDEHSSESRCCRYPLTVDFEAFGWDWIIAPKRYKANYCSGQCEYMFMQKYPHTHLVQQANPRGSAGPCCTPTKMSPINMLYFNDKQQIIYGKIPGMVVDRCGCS
# T2: Activin A (UniProt P08476)
# T2 sequence (looked up): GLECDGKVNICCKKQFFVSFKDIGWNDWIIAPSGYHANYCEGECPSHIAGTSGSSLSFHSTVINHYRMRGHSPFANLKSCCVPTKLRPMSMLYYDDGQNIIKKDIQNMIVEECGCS
# Key:
# GDF11 [1] = biological target: T1, GDF11; assay: cell-based or functional assay
# Activin A [2] = biological target: T2, Activin A; assay: cell-based or functional assay
# GDF11 [3] = biological target: T1, GDF11; assay: cell-based or functional assay; remark: listed apart in the source
# Activin A [4] = biological target: T2, Activin A; assay: cell-based or functional assay; remark: listed apart in the source
# GDF11 [5] = biological target: T1, GDF11; assay: BiaCore; ligand coupled to the device, receptor flowed
Binder,"IC50 (ng/mL), GDF-11, reporter assay, conditioned media (GDF11 [1]) [ng/mL]","IC50 (ng/mL), Activin, reporter assay, conditioned media (Activin A [2]) [ng/mL]","IC50 (ng/mL), GDF-11, reporter assay, conditioned media (GDF11 [3]) [ng/mL]","IC50 (ng/mL), Activin, reporter assay, conditioned media (Activin A [4]) [ng/mL]",other results
"ActRIIB(21-131)-hFc (Fc fusion, not shown: a dimerising Fc or GST) RGEAETRECIYYNANWELERTNQSGLERCEGEQDKRLHCYASWRNSSGTIELVKKGCWLDDFNCYDRQECVATEENPQVYFCCCEGNFCNERFTHLPEAGGPEVTYEPPPT",121,325,,,
"ActRIIB(24-131)-hFc (Fc fusion, not shown: a dimerising Fc or GST) AETRECIYYNANWELERTNQSGLERCEGEQDKRLHCYASWRNSSGTIELVKKGCWLDDFNCYDRQECVATEENPQVYFCCCEGNFCNERFTHLPEAGGPEVTYEPPPT",69,105,,,
"ActRIIB(22-131)-hFc (Fc fusion, not shown: a dimerising Fc or GST) GEAETRECIYYNANWELERTNQSGLERCEGEQDKRLHCYASWRNSSGTIELVKKGCWLDDFNCYDRQECVATEENPQVYFCCCEGNFCNERFTHLPEAGGPEVTYEPPPT",71,100,,,
"ActRIIB(20-132)-hFc (Fc fusion, not shown: a dimerising Fc or GST) GRGEAETRECIYYNANWELERTNQSGLERCEGEQDKRLHCYASWRNSSGTIELVKKGCWLDDFNCYDRQECVATEENPQVYFCCCEGNFCNERFTHLPEAGGPEVTYEPPPTA",,,87,32,
"ActRIIB(20-131)-hFc (Fc fusion, not shown: a dimerising Fc or GST) GRGEAETRECIYYNANWELERTNQSGLERCEGEQDKRLHCYASWRNSSGTIELVKKGCWLDDFNCYDRQECVATEENPQVYFCCCEGNFCNERFTHLPEAGGPEVTYEPPPT",183,201,120,44,
"ActRIIB(23-131)-hFc (Fc fusion, not shown: a dimerising Fc or GST) EAETRECIYYNANWELERTNQSGLERCEGEQDKRLHCYASWRNSSGTIELVKKGCWLDDFNCYDRQECVATEENPQVYFCCCEGNFCNERFTHLPEAGGPEVTYEPPPT",60,43,,,
"ActRIIB(20-128)-hFc (Fc fusion, not shown: a dimerising Fc or GST) GRGEAETRECIYYNANWELERTNQSGLERCEGEQDKRLHCYASWRNSSGTIELVKKGCWLDDFNCYDRQECVATEENPQVYFCCCEGNFCNERFTHLPEAGGPEVTYEP",,,130,158,
"ActRIIB-Fc A64 20-134 (Fc fusion, not shown: a dimerising Fc or GST) GRGEAETRECIYYNANWELERTNQSGLERCEGEQDKRLHCYASWANSSGTIELVKKGCWLDDFNCYDRQECVATEENPQVYFCCCEGNFCNERFTHLPEAGGPEVTYEPPPTAPT",,,,,"GDF11 Inhibition Activity, cell-based assay (KI) (GDF11 [3]): 1000 nM; Activin Inhibition Activity, cell-based assay (KI) (Activin A [4]): 1000 nM"
"Soluble ActRIIB-Fc +15tail (Fc fusion, not shown: a dimerising Fc or GST) SGRGEAETRECIYYNANWELERTNQSGLERCEGEQDKRLHCYASWANSSGTIELVKKGCWLDDFNCYDRQECVATEENPQVYFCCCEGNFCNERFTHLPEAGGPEVTYEPPPTAPT",,,,,Kd (GDF11 [5]): 19 nM
